Data as given in US12104181B2, “Compositions and methods for treating viral infections targeting TRIM7” (THE BOARD OF REGENTS OF THE UNIVERSITY OF TEXAS SYSTEM, priority 2021, dated 2024).

B1: TRIM34: human RING type E3 ligase expressed from lentiviral vector (protein, UniProt Q9BYJ4 1-488, looked up)
E3 ubiquitin-protein ligase …: MASKILLNVQEEVTCPICLELLTEPLSLDCGHSLCRACITVSNKEAVTSMGGKSSCPVCGISYSFEHLQANQHLANIVERLKEVKLSPDNGKKRDLCDHHGEKLLLFCKEDRKVICWLCERSQEHRGHHTVLTEEVFKECQEKLQAVLKRLKKEEEEAEKLEADIREEKTSWKYQVQTERQRIQTEFDQLRSILNNEEQRELQRLEEEEKKTLDKFAEAEDELVQQKQLVRELISDVECRSQWSTMELLQDMSGIMKWSEIWRLKKPKMVSKKLKTVFHAPDLSRMLQMFRELTAVRCYWVDVTLNSVNLNLNLVLSEDQRQVISVPIWPFQCYNYGVLGSQYFSSGKHYWEVDVSKKTAWILGVYCRTYSRHMKYVVRRCANRQNLYTKYRPLFGYWVIGLQNKCKYGVFEESLSSDPEVLTLSMAVPPCRVGVFLDYEAGIVSFFNVTSHGSLIYKFSKCCFSQPVYPYFNPWNCPAPMTLCPPSS
B2: TRIM32: human RING type E3 ligase expressed from lentiviral vector (protein, UniProt Q13049 2-653, looked up)
E3 ubiquitin-protein ligase …: AAAAASHLNLDALREVLECPICMESFTEEQLRPKLLHCGHTICRQCLEKLLASSINGVRCPFCSKITRITSLTQLTDNLTVLKIIDTAGLSEAVGLLMCRSCGRRLPRQFCRSCGLVLCEPCREADHQPPGHCTLPVKEAAEERRRDFGEKLTRLRELMGELQRRKAALEGVSKDLQARYKAVLQEYGHEERRVQDELARSRKFFTGSLAEVEKSNSQVVEEQSYLLNIAEVQAVSRCDYFLAKIKQADVALLEETADEEEPELTASLPRELTLQDVELLKVGHVGPLQIGQAVKKPRTVNVEDSWAMEATASAASTSVTFREMDMSPEEVVASPRASPAKQRGPEAASNIQQCLFLKKMGAKGSTPGMFNLPVSLYVTSQGEVLVADRGNYRIQVFTRKGFLKEIRRSPSGIDSFVLSFLGADLPNLTPLSVAMNCQGLIGVTDSYDNSLKVYTLDGHCVACHRSQLSKPWGITALPSGQFVVTDVEGGKLWCFTVDRGSGVVKYSCLCSAVRPKFVTCDAEGTVYFTQGLGLNLENRQNEHHLEGGFSIGSVGPDGQLGRQISHFFSENEDFRCIAGMCVDARGDLIVADSSRKEILHFPKGGGYSVLIREGLTCPVGIALTPKGQLLVLDCWDHCIKIYSYHLRRYSTP
B3: RNF41: human RING type E3 ligase expressed from lentiviral vector (protein, UniProt Q9H4P4 1-317, looked up)
E3 ubiquitin-protein ligase …: MGYDVTRFQGDVDEDLICPICSGVLEEPVQAPHCEHAFCNACITQWFSQQQTCPVDRSVVTVAHLRPVPRIMRNMLSKLQIACDNAVFGCSAVVRLDNLMSHLSDCEHNPKRPVTCEQGCGLEMPKDELPNHNCIKHLRSVVQQQQTRIAELEKTSAEHKHQLAEQKRDIQLLKAYMRAIRSVNPNLQNLEETIEYNEILEWVNSLQPARVTRWGGMISTPDAVLQAVIKRSLVESGCPASIVNELIENAHERSWPQGLATLETRQMNRRYYENYVAKRIPGKQAVVVMACENQHMGDDMVQEPGLVMIFAHGVEEI
modifications: lentiviral expression
notes: human RING type E3 ligase expressed from lentiviral vector
B4: TRIM33: human RING type E3 ligase expressed from lentiviral vector (protein, UniProt Q9UPN9 1-1127, looked up)
E3 ubiquitin-protein ligase …: MAENKGGGEAESGGGGSGSAPVTAGAAGPAAQEAEPPLTAVLVEEEEEEGGRAGAEGGAAGPDDGGVAAASSGSAQAASSPAASVGTGVAGGAVSTPAPAPASAPAPGPSAGPPPGPPASLLDTCAVCQQSLQSRREAEPKLLPCLHSFCLRCLPEPERQLSVPIPGGSNGDIQQVGVIRCPVCRQECRQIDLVDNYFVKDTSEAPSSSDEKSEQVCTSCEDNASAVGFCVECGEWLCKTCIEAHQRVKFTKDHLIRKKEDVSESVGASGQRPVFCPVHKQEQLKLFCETCDRLTCRDCQLLEHKEHRYQFLEEAFQNQKGAIENLLAKLLEKKNYVHFAATQVQNRIKEVNETNKRVEQEIKVAIFTLINEINKKGKSLLQQLENVTKERQMKLLQQQNDITGLSRQVKHVMNFTNWAIASGSSTALLYSKRLITFQLRHILKARCDPVPAANGAIRFHCDPTFWAKNVVNLGNLVIESKPAPGYTPNVVVGQVPPGTNHISKTPGQINLAQLRLQHMQQQVYAQKHQQLQQMRMQQPPAPVPTTTTTTQQHPRQAAPQMLQQQPPRLISVQTMQRGNMNCGAFQAHQMRLAQNAARIPGIPRHSGPQYSMMQPHLQRQHSNPGHAGPFPVVSVHNTTINPTSPTTATMANANRGPTSPSVTAIELIPSVTNPENLPSLPDIPPIQLEDAGSSSLDNLLSRYISGSHLPPQPTSTMNPSPGPSALSPGSSGLSNSHTPVRPPSTSSTGSRGSCGSSGRTAEKTSLSFKSDQVKVKQEPGTEDEICSFSGGVKQEKTEDGRRSACMLSSPESSLTPPLSTNLHLESELDALASLENHVKIEPADMNESCKQSGLSSLVNGKSPIRSLMHRSARIGGDGNNKDDDPNEDWCAVCQNGGDLLCCEKCPKVFHLTCHVPTLLSFPSGDWICTFCRDIGKPEVEYDCDNLQHSKKGKTAQGLSPVDQRKCERLLLYLYCHELSIEFQEPVPASIPNYYKIIKKPMDLSTVKKKLQKKHSQHYQIPDDFVADVRLIFKNCERFNEMMKVVQVYADTQEINLKADSEVAQAGKAVALYFEDKLTEIYSDRTFAPLPEFEQEEDDGEVTEDSDEDFIQPRRKRLKSDERPVHIK

Tested on: coxsackievirus B3 (CVB3-GFP)
Type: cell-based
Details: HeLa cells, replicate R1; for Percent Infected R1: GFP-positive cells within RFP-positive gate

Molecule | Percent Infected R1 | Z score R1
B1 | 62.2% | −0.336
B2 | 58.4% | −0.384
B3 | 93.5% | 0.06
B4 | 55.3% | −0.424
